This is an account of results in patent US20090298178A1, “GROWTH FACTORS FOR PRODUCTION OF DEFINITIVE ENDODERM” (priority 2008, published 2009).

Experiment [1] deals with hES cells (CyT49; passage 35). Briefly: Differentiation of hES cells to definitive endoderm with activin A plus Wnt3a or GSK3 inhibitors, real-time quantitative PCR at 48 hours (Example 4). The class given is cell-based, human. The note with it: with 100 ng/mL activin A; Wnt3a 25, 50 or 75 ng/mL; GSK3 inhibitor No.15 at 10 nM; FIG. 6A-B. How it is done: Undifferentiated hES cells (CyT49; passage 35) were maintained substantially as described in Example 1 above. Ten hES cell culture plates were then differentiated in RPMI (Mediatech) supplemented with Glutamax, penicillin/streptomycin, and varying concentrations of defined FBS (HyClone). FBS concentrations were 0% for the first 24 h and 0.2% for the second 24 h. Additionally, 0.1% BSA (Invitrogen/Gibco) was added on the first day only. All plates received 100 ng/mL activin A for both days. […] Replicate samples were collected from each culture condition at 48 hours after differentiation commenced and analyzed for relative gene expression using real-time quantitative PCR.

The test system of experiment [2] is hES cells (CyT49; passage 35). Briefly: Further differentiation to pancreatic endoderm and endocrine cells, real-time PCR at 10 days (Example 4). The class given is cell-based, human. The note with it: definitive endoderm produced using Wnt3a at 50 or 75 ng/ml or GXV at 10 nM, FIG. 7. The protocol: Human ES cell cultures were maintained and differentiated substantially as described above in Example 1, and further differentiated to foregut endoderm (stage 2) and then onto pancreatic endoderm and pancreatic endocrine cells (stages 3 and 4). After 48 hours of differentiation to definitive endoderm (stage 1) the cells were briefly washed in PBS+/+ and then further differentiated in RPMI supplemented with 0.2% FBS, Insulin-Transferrin-Selenium (1:1000), Glutamax, penicillin/streptomycin, and 25 ng/mL KGF (R&D Systems) for 3 days. On the first day of stage 2, the culture also received TGF-beta inhibitor No. 4 (3-(6-Methylpyridin-2-yl)-4-(4-quinolyl)-1-phenylthiocarbamoyl-1H-pyrazole) at 2.5 uM (EMD Bioscience). After three days in stage 2 the cells were then differentiated for one day in DMEM with B27 supplement (1:100) containing all-trans retinoic acid (RA) at 0.2 uM and KAAD-cyclopamine at 0.25 uM. Following the single day of retinoid exposure, the cells were cultured in DMEM with B27 (1:100) containing noggin at 40 ng/ml. […]
However, in this instance, the stage 4 noggin treatment lasted for 4 days, as compared to 3 days in Example 2, and replicate samples were taken for real-time PCR analysis at a total of 10 days of differentiation, as compared to 9 days in Example 2.
For orientation: Real-time PCR tracks product formation cycle by cycle.

B1: Wnt3a: Wnt protein (R&D Systems) activating the Wnt signaling pathway (protein, UniProt P56704 19-352, looked up)
Protein Wnt-3a: SYPIWWSLAVGPQYSSLGSQPILCASIPGLVPKQLRFCRNYVEIMPSVAEGIKIGIQECQHQFRGRRWNCTTVHDSLAIFGPVLDKATRESAFVHAIASAGVAFAVTRSCAEGTAAICGCSSRHQGSPGKGWKWGGCSEDIEFGGMVSREFADARENRPDARSAMNRHNNEAGRQAIASHMHLKCKCHGLSGSCEVKTCWWSQPDFRAIGDFLKDKYDSASEMVVEKHRESRGWVETLRPRYTYFKVPTERDLVYYEASPNFCEPNPETGSFGTRDRTCNVSSHGIDGCDLLCCGRGHNARAERRREKCRCVFHWCCYVSCQECTRVYDVHTCK
As for B1, in experiment [1], the “expression levels of SOX17 and FOXA2 at 48 hours of differentiation as compared to the other GSK inhibitors” value is recorded as “substantially higher”. Besides, the “abundance of pancreatic endoderm and endocrine cell types (PDX1, PTF1A, NKX6-1 and NKX2-2 induction)” value in experiment [2] is “much greater abundance”.
